# From patent US20260337282 (published 2026)
# Positions count from the first letter of the chain named.
# T1: mouse CCR8 (mouse)
# T1 chain: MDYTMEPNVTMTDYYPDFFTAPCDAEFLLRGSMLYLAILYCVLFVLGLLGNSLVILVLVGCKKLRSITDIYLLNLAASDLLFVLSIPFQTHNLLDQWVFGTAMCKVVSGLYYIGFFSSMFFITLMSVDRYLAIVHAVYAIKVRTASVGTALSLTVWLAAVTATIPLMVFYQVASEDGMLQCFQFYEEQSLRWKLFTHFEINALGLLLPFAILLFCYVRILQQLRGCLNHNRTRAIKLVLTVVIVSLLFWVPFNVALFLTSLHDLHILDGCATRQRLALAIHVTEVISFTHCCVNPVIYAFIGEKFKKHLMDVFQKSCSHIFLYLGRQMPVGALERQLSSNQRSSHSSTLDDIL
# B1: 11F8-SG-11F8-DA (antibody, V domains shown)
# VH: QVQLVESGGGVVQPGRSLRLSCAASGFTFSTYVMHWVRQAPGKGLEWVAVISYSGNNKYYADSVKGRFIISRDNSKNTLFLQMNSLRGEDTAVYYCARGRSYVNYYGLDVWGQGTTVTVSS
# VL: DIVMTQTPLSLSVTPGQPASISCKSSQSLLYSDAKTYLYWYLQKPGQPPHLLIYEVSNRFSGVPKRFSGSGSGTDFTLKISRVEAEDVGVYYCMQSVKIPLTFGGGTKVEIK
# B2: 11B12-SG-11B12-DA (antibody, V domains shown)
# VH: QVQLVESGGGVVQPGRSLRLSCAASGFSFSSYVMHWVRQAPGKGLEWVAVISYSGSDKYYADSVKGRFTISRDNSKNTLFLQMNSLRPEDTAVYYCARGRGYRYGQSYYYGMDVWGQGTTVTVSS
# VL: B1 VL with H50Q, L51I, Y54F, K65D, V97I, I99L
# B3: 11F5-SG-11F5-DA (antibody, V domains shown)
# VH: EVQLVESGGGVVQPGRSLRLSCAASGFTFSSYVVHWVRQAPGKGLEWVAVISYSGDNKFYADSVKGRFTISRDNSKNTLYLQMNSLRTEDTAVYYCARGRNYYYYYGLDVWGQGTTVTVSS
# VL: B1 VL with P45A, H50Q, K65D, Y91F, V97L, I99V, L101P, G105Q, E110D
# B4: 11F8-AG-11F8-AG (antibody, V domains shown)
# VH: B1 VH with S54A
# VL: B1 VL with D33A, A34G
# B5: 11B12-SG-11B12-SG (antibody, V domains shown)
# VH: B2 VH
# VL: B1 VL with D33S, A34G, H50Q, L51I, Y54F, K65D, V97I, I99L
# B6: 11F8-DA-11F8-DA (antibody, V domains shown)
# VH: B1 VH with S54D, G55A
# VL: B1 VL
# B7: 11B12-SG-11B12-AG (antibody, V domains shown)
# VH: B2 VH
# VL: B1 VL with D33A, A34G, H50Q, L51I, Y54F, K65D, V97I, I99L
# B8: 11B12-AG-11B12-DA (antibody, V domains shown)
# VH: B2 VH with S54A
# VL: B1 VL with H50Q, L51I, Y54F, K65D, V97I, I99L
# B9: 11F5-11F8 (antibody, V domains shown)
# VH: B3 VH with S54D
# VL: B1 VL with A34G
# B10: 11F8-SG-11F8-AG (antibody, V domains shown)
# VH: B1 VH
# VL: B1 VL with D33A, A34G
# B11: 11F8-11F5 (antibody, V domains shown)
# VH: B1 VH with S54D
# VL: B1 VL with A34G, P45A, H50Q, K65D, Y91F, V97L, I99V, L101P, G105Q, E110D
# B12: 11F8-AG-11F8-SG (antibody, V domains shown)
# VH: B1 VH with S54A
# VL: B1 VL with D33S, A34G
# B13: 11F8-AG-11F8-DA (antibody, V domains shown)
# VH: B1 VH with S54A
# VL: B1 VL
# B14: 11B12-11F8-SG (antibody, V domains shown)
# VH: B2 VH with S54D
# VL: B1 VL with D33S, A34G
# B15: 11F5-11B12 (antibody, V domains shown)
# VH: B3 VH with S54D
# VL: B1 VL with A34G, H50Q, L51I, Y54F, K65D, V97I, I99L
# B16: 11F5-DA-11F5-DA (antibody, V domains shown)
# VH: B3 VH with S54D, G55A
# VL: B1 VL with P45A, H50Q, K65D, Y91F, V97L, I99V, L101P, G105Q, E110D
# B17: 11B12-11F5 (antibody, V domains shown)
# VH: B2 VH with S54D
# VL: B1 VL with A34G, P45A, H50Q, K65D, Y91F, V97L, I99V, L101P, G105Q, E110D
# B18: 11F8-11B12 (antibody, V domains shown)
# VH: B1 VH with S54D
# VL: B1 VL with A34G, H50Q, L51I, Y54F, K65D, V97I, I99L
# B19: 11B12-SG-11F8-SG (antibody, V domains shown)
# VH: B2 VH
# VL: B1 VL with D33S, A34G
# B20: 11B12-AG-11B12-SG (antibody, V domains shown)
# VH: B2 VH with S54A
# VL: B1 VL with D33S, A34G, H50Q, L51I, Y54F, K65D, V97I, I99L
# B21: 11F5-SG-11F5-AG (antibody, V domains shown)
# VH: B3 VH
# VL: DIVMTQTPLSLSVTPGQPASISCKSSQSLLYSAGKTYLYWYLQKAGQPPQLLIYEVSNRFSGVPDRFSGSGSGTDFTLKISRVEAEDVGVFYCMQSLKVPPTFGQGTKVDIK
# B22: 11F5-DA-11F5-AG (antibody, V domains shown)
# VH: B3 VH with S54D, G55A
# VL: B21 VL
# B23: 11B12-11F8 (antibody, V domains shown)
# VH: B2 VH with S54D
# VL: B1 VL with A34G
# B24: 11B12-DNA-11B12 (antibody, V domains shown)
# VH: B2 VH with S54D, S75A
# VL: B1 VL with A34G, H50Q, L51I, Y54F, K65D, V97I, I99L
# B25: 11F8-SG-11F8-SG (antibody, V domains shown)
# VH: B1 VH
# VL: B1 VL with D33S, A34G
# B26: 11F8-DA-11F8-SG (antibody, V domains shown)
# VH: B1 VH with S54D, G55A
# VL: B1 VL with D33S, A34G
# B27: 11F8-DA-11F8-AG (antibody, V domains shown)
# VH: B1 VH with S54D, G55A
# VL: B1 VL with D33A, A34G
# B28: 11F5-DA-11F5-SG (antibody, V domains shown)
# VH: B3 VH with S54D, G55A
# VL: B21 VL with A33S
# Molecular target: T1, mouse CCR8
# Test: FACS
row,EC50 [µg/mL],Binder
1,0.173,B1
2,0.059,B2
3,0.138,B3
4,0.148,B4
5,0.041,B5
6,0.128,B6
7,0.042,B7
8,0.074,B8
9,0.184,B9
10,0.218,B10
11,0.116,B11
12,0.149,B12
13,0.171,B13
14,0.12,B14
15,0.163,B15
16,0.253,B16
17,0.171,B17
18,0.155,B18
19,0.099,B19
20,0.038,B20
21,0.092,B21
22,0.463,B22

# Molecular target: T1, mouse CCR8
# Test: FACS
# Remark: another data set of the same source
row,EC50 [µg/mL],Binder
1,0.1,B23
2,0.084,B24
3,0.053,B25

# Molecular target: human CCR8 (human)
# Sequence (chain, as listed by the source): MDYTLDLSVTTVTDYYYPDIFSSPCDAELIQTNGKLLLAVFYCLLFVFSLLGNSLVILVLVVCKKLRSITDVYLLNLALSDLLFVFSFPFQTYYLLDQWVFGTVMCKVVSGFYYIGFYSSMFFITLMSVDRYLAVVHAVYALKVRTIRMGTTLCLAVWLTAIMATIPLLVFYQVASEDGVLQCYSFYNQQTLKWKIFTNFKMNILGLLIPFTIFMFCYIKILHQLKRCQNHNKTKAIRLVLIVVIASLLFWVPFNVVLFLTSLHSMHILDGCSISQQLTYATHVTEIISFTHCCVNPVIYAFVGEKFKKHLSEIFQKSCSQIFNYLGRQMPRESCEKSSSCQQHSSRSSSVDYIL
# Test: FACS
row,EC50 [µg/mL],Binder
1,0.049,B1
2,0.064,B2
3,0.154,B26
4,0.15,B3
5,0.033,B4
6,0.048,B5
7,0.222,B6
8,0.047,B7
9,0.073,B8
10,0.076,B27
11,0.162,B9
12,0.05,B10
13,0.137,B11
14,0.12,B13
15,0.165,B14
16,0.132,B15
17,0.392,B16
18,0.298,B17
19,0.075,B18
20,0.009,B19
21,0.043,B20
22,0.069,B21
23,0.124,B28

# Molecular target: human CCR8 (human)
# Test: FACS
# Remark: another data set of the same source
row,EC50 [µg/mL],Binder
1,0.152,B23
2,0.144,B24
3,0.015,B25
